Measured values taken from article PMC4072508, “Genome-Wide Prediction and Validation of Peptides That Bind Human Prosurvival Bcl-2 Proteins” (PLoS Computational Biology, 2014).
Like-named read-outs stand apart in the source and are kept apart here.

Key:
Mcl-1 [1] = target: T1, Mcl-1 (Homo sapiens, UniProt Q07820); details: cited from earlier work
T1 construct: myc-Mcl-1 SPOT array & FP; made in house
Text: Negative control mutatio ...

Mcl-1 [2] = target: T1, Mcl-1; experiment: LUMIER full-length protein interaction; format: binding; details: LUMIER results for Mcl-1, Z-score relative to Gaussian fit of the data; for z-score 1.2: experiment 1, duplicate 2; for z-score 2.2: experiment 2, duplicate 2
Protocol: (§1) The LUMIER assay was carried out as previously described with the following modifications. A stable cell line expressing receptor tagged on the N-terminus with Nanoluc luciferase was created (the prey). […] Each bait construct was transfected into the receptor-luciferase cells in a 96-well format and after 48 hours the cells were lysed and transferred to 384-well plates coated with anti-FLAG. After incubation and washing, luminescence was measured to quantify how much receptor-luciferase was captured by the bait protein. Anti-Flag ELISA signal was used to exclude bait proteins that were not expressed. The experiment was carried out two times, each in duplicate.

Bcl-xL = target: T2, Bcl-xL (Homo sapiens, UniProt Q07817); experiment: LUMIER full-length protein interaction; format: binding; details: LUMIER results for Bcl-xL, Z-score relative to Gaussian fit of the data; for z-score 1.1: experiment 1, duplicate 1; for z-score 1.2: experiment 1, duplicate 2; for z-score 2.1: experiment 2, duplicate 1; for z-score 2.2: experiment 2, duplicate 2
T2 construct: myc-Bcl-xL SPOT array & FP; made in house
T2 sequence (Q07817 with tags, fused parts or gaps): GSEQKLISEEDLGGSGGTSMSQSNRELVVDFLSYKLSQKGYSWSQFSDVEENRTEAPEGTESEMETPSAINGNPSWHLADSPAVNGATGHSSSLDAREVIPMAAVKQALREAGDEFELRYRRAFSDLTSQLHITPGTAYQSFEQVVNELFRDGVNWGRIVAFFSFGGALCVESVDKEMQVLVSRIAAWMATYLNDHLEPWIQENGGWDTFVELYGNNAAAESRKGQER
Protocol: as §1

[3] = read-out: Binder class, Mcl-1, S1 Bim variants, specific binding measured using yeast display, ref Dutta et al. (2010)
[4] = read-out: Binder class, Mcl-1, S2 Bim variants, ref Dutta et al. (2013)
[5] = read-out: Binder class, Mcl-1, natural BH3 peptides, interactions taken from literature
[6] = read-out: KD, Mcl-1, previously reported

T1 sequence (Q07820 with tags, fused parts or gaps): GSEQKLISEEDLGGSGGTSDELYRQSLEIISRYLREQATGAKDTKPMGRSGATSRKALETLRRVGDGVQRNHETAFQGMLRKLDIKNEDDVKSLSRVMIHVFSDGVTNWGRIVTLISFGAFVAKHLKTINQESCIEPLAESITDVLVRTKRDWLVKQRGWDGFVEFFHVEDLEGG

Substance | Kd (Mcl-1 [1]; [3]) [µM] | further results
PEIWIAQEIGRTGDEVNAYYARR | < 1 | 
PEIWFAQEARRYGDEFNAYYARR | > 10 | 
PEIWIAQELGRNGDEFNAYYARR | > 10 | 
PEIWFAQEIRRDGDEFNAYYARR | > 10 | 
PEIWFAQELKRNGDEYNAYYARR | > 10 | 
PEIWIAQEVDRIGDEVNAYYARR | < 1 | 
PEIWDAQELGRIGDEVNAYYARR | < 1 | 
PEIWFAQEIDRIGDEVNAYYARR | < 1 | 
PEIWIAQEFQRAGDEYNAYYARR | > 10 | 
PEIWIAQEIGRIGNEVNAYYARR | < 1 | 
PEIWVAQEIDRVGDEINAYYARR | < 1 | 
PEIWIAQELQRDGDEYNAYYARR | > 10 | 
PEIWAAQEIRRIGDENNAYYARR | < 1 | 
PEIWIAQEIGRIGDETNAYYARR | < 1 | 
PEIWFAQELKRFGDEANAYYARR | > 10 | 
PEIWFAQEFSRIGDEVNAYYARR | < 1 | 
PEIWVAQEFGRAGDEFNAYYARR | > 10 | 
PEIWIAQELRRAGDVLNAYYARR |  | Kd (Mcl-1 [1]; [4]): < 1 µM

Substance | Kd (Mcl-1 [1]; [3]) [µM] | further results
AAQRYGRELRRMSDEFVDSFKKG (LWAAQRYGRELRRMSDEFVDSFKKGL) [Bad] |  | Kd (Mcl-1 [1]; [5]): < 1 µM; Kd (Mcl-1 [1]; [6]): > 2.5 µM
PEIWIAQEFQRNGDEYNAYYARR | > 10 | 
PEIWVAQEFRRAGDEFNAYYARR | > 10 | 
WAREIGAQLRRMADDLNAQYERR (EQWAREIGAQLRRMADDLNAQYERRR) [Puma] |  | Kd (Mcl-1 [1]; [5]): < 1 µM
MTQEVGQLLQDMGDDVYQQYRSL (GVMTQEVGQLLQDMGDDVYQQYRSLT) [Mule] |  | Kd (Mcl-1 [1]; [5]): > 10 µM
EGEKEVEALKKSADWVSDWSSRP (VVEGEKEVEALKKSADWVSDWSSRPE) [BNIP3L] |  | Kd (Mcl-1 [1]; [5]): > 10 µM; Kd (Mcl-1 [1]; [6]): > 2.5 µM
PEIWFAQELSRNGDEFNAYYARR | > 10 | 
PEIWMAQVLRRFGDLLNAYYARR |  | Kd (Mcl-1 [1]; [4]): < 1 µM
LEVECATQLRRFGDKLNFRQKLL (AELEVECATQLRRFGDKLNFRQKLLN) [Noxa] |  | Kd (Mcl-1 [1]; [5]): > 10 µM
PEIWFAQELSRYGEEYNAYYARR | > 10 | 
PEIWVAQEFKRYGDETNAYYARR | > 10 | 
PEIWFAQELRRDGDEFNAYYARR | > 10 | 
PEIWLAQYLRRLGDQINAYYARR |  | Kd (Mcl-1 [1]; [4]): < 1 µM
PEIWFAQEVNRIGDEVNAYYARR | > 10 | 
TMEM214 (SFLSAHCASHLAWFGDSLTSLSQRLQ) |  | z-score 1.2 (Mcl-1 [2]): -0.396; z-score 2.2 (Mcl-1 [2]): -0.9391; z-score 1.1 (Bcl-xL): 0.1125; z-score 1.2 (Bcl-xL): -0.2947; z-score 2.1 (Bcl-xL): -0.2028; z-score 2.2 (Bcl-xL): 0.228
PEIWVAQEFQRNGDEFNAYYARR | > 10 | 
DSN1 (RAKASSLSEELKHFADGLETDGTLQK) |  | z-score 1.2 (Mcl-1 [2]): -0.5012; z-score 2.1 (Mcl-1 [2]; experiment 2, duplicate 1): 0.1019; z-score 2.2 (Mcl-1 [2]): 0.2829; z-score 1.1 (Bcl-xL): -1.115; z-score 1.2 (Bcl-xL): 0.4795; z-score 2.1 (Bcl-xL): -0.01103; z-score 2.2 (Bcl-xL): -0.4978
